Assay results reported in the Immune Epitope Database (IEDB).

Experiments:
HLA-A*80:01 = test: IEDB peptide-MHC binding, purified MHC/direct/fluorescence; filed as Kd, often an IC50 or EC50 that approximates it; ≥ and ≤ were set here for values at or beyond the usual limits of such assays
HLA-A*01:01 [1] = test: IEDB peptide-MHC binding, purified MHC/competitive/fluorescence; filed as Kd, often an IC50 or EC50 that approximates it; ≥ and ≤ were set here for values at or beyond the usual limits of such assays; details: source organism: Homo sapiens
HLA-A*30:01 [2] = test: as above
HLA-A*31:01 = test: IEDB peptide-MHC binding, purified MHC/direct/fluorescence; filed as Kd, often an IC50 or EC50 that approximates it; ≥ and ≤ were set here for values at or beyond the usual limits of such assays
HLA-A*03:01 = test: as above
HLA-A*01:01 [3] = test: as above
HLA-A*02:03 = test: as above
HLA-B*27:05 = test: as above
HLA-B*40:01 = test: as above
HLA-A*02:06 = test: as above
HLA-B*44:02 = test: as above
HLA-A*02:19 = test: as above
HLA-B*58:01 = test: as above
HLA-A*24:02 = test: as above
HLA-B*07:02 = test: as above
HLA-B*46:01 = test: as above; details: source organism: Brucella melitensis
HLA-A*02:01 = test: as above
HLA-B*15:01 = test: as above
HLA-A*02:12 = test: as above
HLA-A*11:01 = test: as above
HLA-A*24:03 [4] = test: as above; details: source organism: Amur virus
HLA-A*23:01 = test: as above; details: source organism: Amur virus
HLA-A*29:02 [5] = test: as above; details: source organism: Mammarenavirus machupoense
HLA-A*30:02 = test: IEDB peptide-MHC binding, purified MHC/competitive/radioactivity; filed as Kd, often an IC50 or EC50 that approximates it; ≥ and ≤ were set here for values at or beyond the usual limits of such assays; details: source organism: Mammarenavirus lassaense
HLA-A*30:01 [6] = test: as above; details: source organism: Mammarenavirus lassaense
HLA-A*32:01 = test: as above; details: source organism: Mammarenavirus lassaense
HLA-A*29:02 [7] = test: as above; details: source organism: Mammarenavirus lassaense
HLA-A*26:01 [8] = test: as above; details: source organism: Mammarenavirus lassaense
HLA-B*15:42 = test: IEDB peptide-MHC binding, purified MHC/competitive/fluorescence; filed as Kd, often an IC50 or EC50 that approximates it; ≥ and ≤ were set here for values at or beyond the usual limits of such assays; details: source organism: Mammarenavirus lassaense
HLA-B*45:06 = test: as above; details: source organism: Mammarenavirus lassaense
HLA-B*83:01 = test: as above; details: source organism: Mammarenavirus lassaense
HLA-A*69:01 = test: IEDB peptide-MHC binding, purified MHC/direct/fluorescence; filed as Kd, often an IC50 or EC50 that approximates it; ≥ and ≤ were set here for values at or beyond the usual limits of such assays
HLA-A*02:11 = test: as above; details: source organism: Salmonella enterica subsp. arizonae serovar 62:z4,z23:-
HLA-C*06:02 = test: as above; details: source organism: Yersinia pestis Nepal516
HLA-B*08:01 = test: as above
HLA-A*24:03 [9] = test: IEDB peptide-MHC binding, purified MHC/competitive/fluorescence; filed as Kd, often an IC50 or EC50 that approximates it; ≥ and ≤ were set here for values at or beyond the usual limits of such assays; details: source organism: Encephalitozoon cuniculi GB-M1
HLA-A*26:01 [10] = test: IEDB peptide-MHC binding, purified MHC/direct/fluorescence; filed as Kd, often an IC50 or EC50 that approximates it; ≥ and ≤ were set here for values at or beyond the usual limits of such assays; details: source organism: Rickettsia sibirica 246
HLA-B*08:02 = test: as above; details: source organism: Rickettsia sibirica 246
[11] = source organism: Brucella melitensis
[12] = source organism: Brucella ovis ATCC 25840
[13] = source organism: Mammarenavirus lassaense
[14] = source organism: Yersinia enterocolitica
[15] = source organism: Salmonella enterica subsp. arizonae serovar 62:z4,z23:-
[16] = source organism: Rickettsia conorii

CSDSDGLAP
Kd (HLA-A*80:01; source organism: Homo sapiens): ≥ 20000 nM | Kd (HLA-A*01:01 [1]): ≥ 20000 nM | Kd (HLA-A*30:01 [2]; source organism: Homo sapiens): ≥ 20000 nM

CTDPPLLSV
Kd (HLA-A*31:01; [11]): ≥ 20000 nM | Kd (HLA-A*03:01; [11]): ≥ 20000 nM | Kd (HLA-A*01:01 [3]; [11]): 6980 nM | Kd (HLA-A*02:03; [12]): 1050 nM | Kd (HLA-B*27:05; [11]): ≥ 20000 nM | Kd (HLA-B*40:01; [11]): ≥ 20000 nM | Kd (HLA-A*02:06; [12]): 23 nM | Kd (HLA-B*44:02; [11]): ≥ 20000 nM | Kd (HLA-A*02:19; [12]): ≥ 20000 nM | Kd (HLA-B*58:01; [11]): ≥ 20000 nM | Kd (HLA-A*24:02; [11]): ≥ 20000 nM | Kd (HLA-B*07:02; [11]): ≥ 20000 nM | Kd (HLA-B*46:01): ≥ 20000 nM | Kd (HLA-A*02:01; [11]): 526 nM | Kd (HLA-B*15:01; [11]): ≥ 20000 nM | Kd (HLA-A*02:12; [12]): 529 nM | Kd (HLA-A*11:01; [11]): ≥ 20000 nM

ESPSSIWVF
Kd (HLA-A*24:03 [4]): 1220 nM | Kd (HLA-A*24:02; source organism: Amur virus): 5.8 nM | Kd (HLA-A*23:01): 145 nM | Kd (HLA-A*30:01 [2]; source organism: Hantaan virus 76-118): 2330 nM

ISEMLSKEY
Kd (HLA-A*01:01 [3]; source organism: Mammarenavirus cupixiense): 545 nM | Kd (HLA-A*29:02 [5]): 179 nM | Kd (HLA-A*80:01; source organism: Mammarenavirus machupoense): 8000 nM

LIDGRTSFY
Kd (HLA-A*30:02): 1210 nM | Kd (HLA-A*30:01 [6]): ≥ 51300 nM | Kd (HLA-A*32:01): ≥ 77800 nM | Kd (HLA-A*29:02 [7]): 1150 nM | Kd (HLA-A*26:01 [8]): 14400 nM | Kd (HLA-A*01:01 [3]; [13]): 0.9 nM | Kd (HLA-A*80:01; [13]): 14.8 nM | Kd (HLA-B*15:42): ≥ 5000 nM | Kd (HLA-B*45:06): ≥ 5000 nM | Kd (HLA-B*83:01): ≥ 5000 nM

RIYSHIAPY
Kd (HLA-A*69:01; [14]): ≥ 20000 nM | Kd (HLA-A*31:01; [14]): 46.7 nM | Kd (HLA-A*03:01; [14]): 31.2 nM | Kd (HLA-A*01:01 [3]; [14]): ≥ 20000 nM | Kd (HLA-A*02:03; [15]): 562 nM | Kd (HLA-B*27:05; [14]): 723 nM | Kd (HLA-B*40:01; [14]): ≥ 20000 nM | Kd (HLA-A*02:11): 126 nM | Kd (HLA-A*02:06; [15]): 221 nM | Kd (HLA-B*44:02; [14]): ≥ 20000 nM | Kd (HLA-A*02:19; [15]): ≥ 20000 nM | Kd (HLA-B*58:01; [14]): 58 nM | Kd (HLA-B*07:02; [14]): ≥ 20000 nM | Kd (HLA-C*06:02): ≥ 20000 nM | Kd (HLA-A*02:01; [14]): 1970 nM | Kd (HLA-B*08:01; [15]): ≥ 20000 nM | Kd (HLA-B*15:01; [14]): 109 nM | Kd (HLA-A*02:12; [15]): 475 nM | Kd (HLA-A*11:01; [14]): 36.8 nM

RVLENTHIF
Kd (HLA-A*30:01 [2]; source organism: Encephalitozoon cuniculi GB-M1): 222 nM | Kd (HLA-A*24:03 [9]): 2.9 nM

SSSGMDAYY
Kd (HLA-A*69:01; [16]): ≥ 20000 nM | Kd (HLA-A*31:01; [16]): ≥ 20000 nM | Kd (HLA-A*03:01; [16]): ≥ 20000 nM | Kd (HLA-A*01:01 [3]; [16]): 69.2 nM | Kd (HLA-B*27:05; [16]): ≥ 20000 nM | Kd (HLA-B*40:01; [16]): ≥ 20000 nM | Kd (HLA-B*44:02; [16]): ≥ 20000 nM | Kd (HLA-B*58:01; [16]): 216 nM | Kd (HLA-A*24:02; [16]): ≥ 20000 nM | Kd (HLA-B*07:02; [16]): ≥ 20000 nM | Kd (HLA-A*02:01; [16]): ≥ 20000 nM | Kd (HLA-B*08:01; source organism: Rickettsia sibirica 246): ≥ 20000 nM | Kd (HLA-B*15:01; [16]): 159 nM | Kd (HLA-A*26:01 [10]): 124 nM | Kd (HLA-B*08:02): ≥ 20000 nM
